B1: HER2/neu peptide, position 452, 10 amino acids (peptide)
peptide: WLGLRSLREL
notes: Synthetic peptide; also called HER2/neu 452-461
B2: HER2/neu peptide, position 1196, 9 amino acids (peptide)
peptide: YLTPQGGAA
notes: Synthetic peptide; also called HER2/neu 1196-1204
B3: HER2/neu peptide, position 665, 10 amino acids (peptide)
peptide: VVLGVVFGIL
notes: Synthetic peptide; also called HER2/neu 665-674
B4: Her2/neu.8 (peptide)
peptide: RWGLLLAL
notes: HER2/neu peptide, 8-mer; also called RWGLLLAL
B5: Herw/neu414.Y2F9 (peptide)
peptide: AYPDSLPDF
notes: HER2/neu analog peptide; label printed with a misprint (Herw/neu414)
B6: HER2/neu peptide, position 167, 9 amino acids (peptide)
peptide: ILWKDIFHK
notes: Synthetic peptide; also called Her2/neu.167
B7: HER2/neu peptide, position 42, 9 amino acids (peptide)
peptide: HLDMLRHLY
notes: Synthetic peptide; also called Her2/neu.42
B8: HER2/neu peptide, position 478, 10 amino acids (peptide)
peptide: HTVPWDQLFR
notes: Synthetic peptide; also called Her2/neu.478

molecular target: T1, HLA-A*0201 (human); test: inhibition of 125I-labelled probe peptide binding to purified HLA, gel filtration
T1 construct: also called HLA-A2.1

Binder	relative binding ratio
VVGILLVVVL (Synthetic peptide) [HER2/neu peptide, position 658, 10 amino acids]	0.0009 ratio (IC50 of standard peptide / IC50 of test peptide)
B1	0.0001 ratio (IC50 of standard peptide / IC50 of test peptide)
VVVLGVVFGI (Synthetic peptide) [HER2/neu peptide, position 664, 10 amino acids]	0.0032 ratio (IC50 of standard peptide / IC50 of test peptide)
B2	0.0001 ratio (IC50 of standard peptide / IC50 of test peptide)
B3	0.0027 ratio (IC50 of standard peptide / IC50 of test peptide)
YISAWPDSL (Synthetic peptide) [HER2/neu peptide, position 411, 9 amino acids]	0.0003 ratio (IC50 of standard peptide / IC50 of test peptide)
VVGILLVVV (Synthetic peptide) [HER2/neu peptide, position 658, 9 amino acids]	0.0005 ratio (IC50 of standard peptide / IC50 of test peptide)
YLSTDVGSCT (Synthetic peptide) [HER2/neu peptide, position 303, 10 amino acids]	0.0002 ratio (IC50 of standard peptide / IC50 of test peptide)

molecular target: T2, HLA-A*0101 (purified HLA class I molecule) (human); test: competition with 125I-labelled standard peptide on purified HLA-A*0101, gel filtration
T2 construct: also called HLA-A1

Binder	relative binding ratio (IC50 of standard peptide / IC50 of test peptide)
ETLEEITGYLY (also called Her2/neu.401) [HER2/neu peptide, position 401, 11 amino acids]	0.44 ratio
DMGDLVDAEEY [HER2/neu peptide, position 1013, 11 amino acids]	0.0027 ratio
YVMAGVGSPY	1.1 ratio
ELMTFGAKPY [HER2/neu peptide, position 914, 10 amino acids]	0.0082 ratio
ETHLDMLRHLY (also called Her2/neu.40) [HER2/neu peptide, position 40, 11 amino acids]	0.28 ratio
CSKPCARVCY [HER2/neu peptide, position 334, 10 amino acids]	0.0016 ratio
PLTCSPQPEY [HER2/neu peptide, position 1130, 10 amino acids]	0.0072 ratio
PTHDPSPLQRY (H is used here) [HER2/neu peptide, position 1102, 11 amino acids]	0.016 ratio
RVLQGLPREY [HER2/neu peptide, position 545, 10 amino acids]	0.0015 ratio
RLLDIDETEY [HER2/neu peptide, position 868, 10 amino acids]	1.3 ratio
PSGVKPDLSY [HER2/neu peptide, position 601, 10 amino acids]	0.001 ratio
VVQGNLELTY	0.018 ratio

molecular target: T3, HLA-A*0101 (human); test: inhibition of 125I-labeled probe peptide binding to purified HLA-A*0101, gel filtration
T3 construct: also called HLA-A1

Binder	IC50
ETHLDMLRHLY (HER2/neu peptide) [Her2/neu.40]	89 nM
VFETLEEITGY (HER2/neu peptide) [Her2/neu.399]	5560 nM
EADQCVACAHY (HER2/neu peptide) [Her2/neu.580]	250 nM
ASCVTACPY (HER2/neu peptide, 9-mer) [Her2/neu.293]	455 nM
ATCVTACPY (HER2/neu analog peptide) [Her2/neu.293.T2]	49 nM
VTACPYNY (HER2/neu peptide) [Her2/neu.296]	250 nM
ETMPNPEGRY (HER2/neu analog peptide) [Her2/neu.280.T2]	3.9 nM
GTDMKLRLPY (HER2/neu analog peptide) [Her2/neu.28.Y10]	50 nM
PTDCCHEQCAA (HER2/neu peptide, 11-mer) [Her2/neu.232]	58 nM
HTDMLRHLY (HER2/neu analog peptide) [Her2/neu.42.T2]	1.9 nM
GTDLFEDNY (HER2/neu analog peptide) [Her2/neu.104.D3]	0.9 nM

molecular target: HLA-A*2402 (human); test: inhibition of 125I-labeled probe peptide binding to purified HLA-A*2402, gel filtration

Binder	IC50
B4	480 nM
CYGLGMEHF (HER2/neu analog peptide) [Her2/neu.342.F9]	164 nM
RYTHQSDVF (HER2/neu analog peptide) [Her2/neu.898.Y2F9]	60 nM
LYISAWPDSL (HER2/neu peptide) [Her2/neu.410]	143 nM
LYISAWPDSF (HER2/neu analog peptide) [Her2/neu.410.F10]	10 nM
AYSLTLQGL (HER2/neu peptide) [Her2/neu.440]	92 nM
AYSLTLQGF (HER2/neu analog peptide) [Her2/neu.440.F9]	52 nM
TYLPTNASL (HER2/neu peptide, 9-mer) [Her2/neu.63]	316 nM
TYLPTNASF (HER2/neu analog peptide) [Her2/neu.63.F9]	44 nM
B5	24 nM
SYGVTVWEL (HER2/neu peptide) [Her2/neu.907]	100 nM
SYMPIWKF (HER2/neu peptide) [Her2/neu.609]	38 nM

molecular target: HLA-A*1101 (human); test: competition with 125I-labelled probe peptide for purified HLA-A*1101, gel filtration; ratio to standard peptide 940.06 [..] (6.0 nM)

Binder	relative binding ratio (IC50 of standard peptide / IC50 of test peptide)
YVLIAHNQVR (also called Her2/neu.83) [HER2/neu peptide, position 83, 10 amino acids]	0.0013 ratio
WMALESILRR (also called Her2/neu.888) [HER2/neu peptide, position 888, 10 amino acids]	0.0016 ratio
WIPDGENVK (also called Her2/neu.739) [HER2/neu peptide, printed position 730 (taken as 739), 9 amino acids]	0.0001 ratio
YLEDVRLVHR (also called Her2/neu.835) [HER2/neu peptide, position 835, 10 amino acids]	0.0001 ratio
VSEFSRMAR (also called Her2/neu.973) [HER2/neu peptide, position 973, 9 amino acids]	0.0021 ratio
VVQGNLELTY (also called Her2/neu.55)	0.011 ratio
VTAEDGTQR (also called Her2/neu.322) [HER2/neu peptide, position 322, 9 amino acids]	0.014 ratio
YVMAGVGSPY (also called Her2/neu.772)	0.012 ratio
WMALESILR (also called Her2/neu.888) [HER2/neu peptide, position 888, 9 amino acids]	-0.0002 ratio
WMIDSECRPR (also called Her2/neu.959) [HER2/neu peptide, position 959, 10 amino acids]	0.0002 ratio
VTGASPGGLR (also called Her2/neu.129) [HER2/neu peptide, position 129, 10 amino acids]	0.0005 ratio

molecular target: T4, HLA-A*0301 (human); test: competitive inhibition of 125I-labelled standard peptide binding to purified HLA-A*0301, gel filtration; standard 941.12 [..] (11 nM)
T4 construct: also called HLA-A3

Binder	relative binding ratio (IC50 of standard peptide / IC50 of test peptide)
LACHQLCAR (Synthetic peptide) [HER2/neu peptide, position 509, 9 amino acids]	-0.0002 ratio
LALTLIDTNR (Synthetic peptide) [HER2/neu peptide, position 179, 10 amino acids]	-0.0002 ratio
LCYQDTILWK (Synthetic peptide) [HER2/neu peptide, position 161, 10 amino acids]	0.0081 ratio
B6	0.28 ratio
KVLRENTSPK (Synthetic peptide) [HER2/neu peptide, position 753, 10 amino acids]	0.38 ratio
B7	0.037 ratio
HSCVDLDDK (Synthetic peptide) [HER2/neu peptide, position 632, 9 amino acids]	-0.0002 ratio
B8	0.0035 ratio
ILKETELRK (Synthetic peptide) [HER2/neu peptide, position 714, 9 amino acids]	0.019 ratio
KIPVAIKVLR (Synthetic peptide) [HER2/neu peptide, position 747, 10 amino acids]	0.0009 ratio
ILIKRRQQK (T0001 prints T at residue 673 (FGTLIK)) [HER2/neu peptide, position 673, 9 amino acids]	0.38 ratio
KIRKYTMR (Synthetic peptide) [HER2/neu peptide, position 681, 8 amino acids]	0.001 ratio

From US20040018971A1 (published 2004)
